# B1: Saccharomyces cerevisiae diphosphomevalonate decarboxylase (PMDsc, SEQ ID NO: 1) variant R74H (Saccharomyces cerevisiae S288C; R74H) (protein)
# chain: MTVYTASVTAPVNIATLKYWGKRDTKLNLPTNSSISVTLSQDDLRTLTSAATAPEFERDTLWLNGEPHSIDNEHTQNCLRDLRQLRKEMESKDASLPTLSQWKLHIVSENNFPTAAGLASSAAGFAALVSAIAKLYQLPQSTSEISRIARKGSGSACRSLFGGYVAWEMGKAEDGHDSMAVQIADSSDWPQMKACVLVVSDIKKDVSSTQGMQLTVATSELFKERIEHVVPKRFEVMRKAIVEKDFATFAKETMMDSNSFHATCLDSFPPIFYMNDTSKRIISWCHTINQFYGETIVAYTFDAGPNAVLYYLAENESKLFAFIYKLFGSVPGWDKKFTTEQLEAFNHQFESSNFTARELDLELQKDVARVILTQVGSGPQETNESLIDAKTGLPKE
# notes: His tag; made in house; host or cells: E. coli Rosetta (DE3)
# Key:
# [1] = target: T1, Saccharomyces cerevisiae diphosphomevalonate decarboxylase (PMDsc), wild type, SEQ ID NO: 1 (Saccharomyces cerevisiae, UniProt P32377); design: His tag; made in house; host or cells: E. coli (Rosetta (DE3) is stated for the mutant plasmids); details: Kang et al., 2016, Krepkiy and Miziorko, 2004, cited from earlier work
# T1 sequence (P32377 1-396): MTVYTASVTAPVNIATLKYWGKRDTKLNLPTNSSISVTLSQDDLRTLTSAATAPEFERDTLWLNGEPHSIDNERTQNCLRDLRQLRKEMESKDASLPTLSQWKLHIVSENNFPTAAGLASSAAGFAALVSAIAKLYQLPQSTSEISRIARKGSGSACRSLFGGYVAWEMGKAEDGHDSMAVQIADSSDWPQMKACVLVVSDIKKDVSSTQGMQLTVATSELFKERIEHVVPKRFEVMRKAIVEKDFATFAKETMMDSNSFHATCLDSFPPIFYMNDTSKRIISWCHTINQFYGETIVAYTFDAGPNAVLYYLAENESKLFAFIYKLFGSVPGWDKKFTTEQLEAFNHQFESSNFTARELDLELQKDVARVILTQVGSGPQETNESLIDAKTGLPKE
# [2] = target: T2, Saccharomyces cerevisiae diphosphomevalonate decarboxylase (PMDsc, SEQ ID NO: 1) variant Y19H (Saccharomyces cerevisiae, UniProt P32377, Y19H); assay: In vitro kinetics of MVAP decarboxylation by PMDsc Y19H (coupled assay); type: biochemical
# T2 construct: His tag; made in house; host or cells: E. coli Rosetta (DE3)
# T2 sequence (P32377 1-396 Y19H): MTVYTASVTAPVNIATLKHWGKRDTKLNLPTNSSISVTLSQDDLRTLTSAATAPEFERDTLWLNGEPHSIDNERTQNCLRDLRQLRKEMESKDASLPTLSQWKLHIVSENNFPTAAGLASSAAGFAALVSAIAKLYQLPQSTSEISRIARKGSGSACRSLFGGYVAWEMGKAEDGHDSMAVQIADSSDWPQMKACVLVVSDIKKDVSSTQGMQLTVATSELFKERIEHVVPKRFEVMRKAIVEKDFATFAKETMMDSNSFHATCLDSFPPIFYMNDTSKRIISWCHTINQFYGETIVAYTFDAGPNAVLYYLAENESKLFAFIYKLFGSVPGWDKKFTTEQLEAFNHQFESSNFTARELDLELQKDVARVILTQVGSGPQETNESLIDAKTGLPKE
# [3] = target: T3, Saccharomyces cerevisiae diphosphomevalonate decarboxylase (PMDsc, SEQ ID NO: 1) variant M212Q (Saccharomyces cerevisiae, UniProt P32377, M212Q); assay: In vitro kinetics of MVAP decarboxylation by PMDsc M212Q (coupled assay); type: biochemical; details: MVAP 0.100-4.0 mM, 4 mM ATP, pH 7.5; brackets: standard error
# T3 construct: His tag; made in house; host or cells: E. coli Rosetta (DE3)
# T3 sequence (P32377 1-396 M212Q): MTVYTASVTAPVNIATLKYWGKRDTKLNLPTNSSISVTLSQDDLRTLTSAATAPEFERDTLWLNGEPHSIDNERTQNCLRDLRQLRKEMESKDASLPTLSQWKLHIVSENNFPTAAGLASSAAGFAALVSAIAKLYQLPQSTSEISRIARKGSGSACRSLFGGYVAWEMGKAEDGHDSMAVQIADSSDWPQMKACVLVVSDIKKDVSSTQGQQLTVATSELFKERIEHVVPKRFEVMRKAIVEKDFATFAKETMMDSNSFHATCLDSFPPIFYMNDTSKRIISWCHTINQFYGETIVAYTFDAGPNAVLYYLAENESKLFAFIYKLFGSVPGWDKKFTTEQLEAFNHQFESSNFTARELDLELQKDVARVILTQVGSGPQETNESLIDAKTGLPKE
# [4] = target: T4, Saccharomyces cerevisiae diphosphomevalonate decarboxylase (PMDsc, SEQ ID NO: 1) variant R74G (Saccharomyces cerevisiae, UniProt P32377, R74G); assay: In vitro kinetics of MVAP decarboxylation by PMDsc R74G (coupled assay)
# T4 sequence (P32377 1-396 R74G): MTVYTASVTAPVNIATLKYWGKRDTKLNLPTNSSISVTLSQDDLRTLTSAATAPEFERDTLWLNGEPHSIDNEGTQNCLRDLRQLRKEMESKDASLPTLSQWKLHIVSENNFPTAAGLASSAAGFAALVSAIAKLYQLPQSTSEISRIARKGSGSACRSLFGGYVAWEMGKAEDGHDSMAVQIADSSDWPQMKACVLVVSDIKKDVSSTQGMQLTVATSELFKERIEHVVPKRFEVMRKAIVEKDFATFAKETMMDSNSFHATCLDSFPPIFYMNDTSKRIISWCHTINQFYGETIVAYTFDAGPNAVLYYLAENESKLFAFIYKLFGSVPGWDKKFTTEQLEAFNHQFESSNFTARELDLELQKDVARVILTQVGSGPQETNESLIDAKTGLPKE
# Protocol: (§1) This turnover number (kobs) depends upon each mutant's kcat, KM, and KI, yielding a more accurate assessment of the turnover conditions in vivo (Kang et al., 2016).
# (§2) In vitro enzyme kinetics of PMDsc were performed as described in the previous study (Kang et al., 2016). Briefly, enzymatic activity was determined by a spectrophotometric assay quantifying ADP product formation via the pyruvate kinase/lactate dehydrogenase coupled enzyme assay. Assay mixtures were prepared in 150 μL total volume containing 50 mM HEPES-KOH (pH 7.5), 10 mM MgCl2, 400 μM phosphoenolpyruvate, 400 μM NADH, 4 mM ATP, and 25 U of pyruvate kinase/lactate dehydrogenase. The reaction was initiated by enzyme after incubating PMDsc substrate and cofactor for fifteen minutes with coupled assay components. The MVAP was varied from 0.100-4.0 mM, and the reaction velocity was determined by monitoring the absorbance at 340 nm in a Spectramax 384plus microplate reader (Molecular Devices, USA). To obtain kinetic data relevant to non-competitive substrate inhibition, MVAP was varied from 0.100-100 mM. Enzyme concentration (ε=56,630 M^−1 cm^−1) was determined spectrophotometrically at 280 nm with a NanoDrop ND-1000 spectrophotometer. kcat and KM were derived for PMDsc mutants by fitting the initial velocities measured from 0.100-4.0 mM MVAP to the Michaelis-Menten equation; KI was determined for select mutants by fitting initial velocities measured from 0.100-100 mM MVAP to the non-competitive substrate inhibition equation. All kinetic analysis was performed in Graphpad Prism, version 7.0a.
# [5] = target: T1, Saccharomyces cerevisiae diphosphomevalonate decarboxylase (PMDsc), wild type, SEQ ID NO: 1; assay: In vitro kinetics of MVAP decarboxylation by PMDsc WT (pyruvate kinase/lactate dehydrogenase coupled assay)
# Protocol: as §1, §2
# E. coli DH1 [6] = assay: Isopentenol production in E. coli via IPP-bypass MVA pathway (GC-FID); type: cell-based, Escherichia coli; details: 48 hr
# [7] = previous study (Kang 2015); cited from earlier work
# E. coli DH1 [8] = details: from a previous study (Kang et al., 2016); cited from earlier work
# [9] = substrate: C[C@@](O)(CCOP(=O)(O)O)CC(=O)O; assay: In vitro kinetics of MVAP decarboxylation by PMDsc R74H (coupled assay); type: biochemical, Saccharomyces cerevisiae; details: other: MVAP 0.100-4.0 mM, 4 mM ATP, pH 7.5, brackets: standard error
# E. coli DH1 [10] = assay: Growth of E. coli DH1 under the screening conditions (MEP pathway blocked by fosmidomycin, IPP-bypass pathway + IPK)
# [11] = MVAP 0.100-4.0 mM, 4 mM ATP, pH 7.5, brackets: standard error
# [12] = observed turnover number calculated at 100 mM MVAP, noncompetitive substrate inhibition
molecule,measurement,setting,value
"C[C@@](O)(CCOP(=O)(O)OP(=O)(O)O)CC(=O)O [MVAPP, mevalonate 5-diphosphate]",kcat (MVAPP),[1]; original substrate MVAPP,5.4 s⁻¹
"C[C@@](O)(CCOP(=O)(O)O)CC(=O)O [MVAP, mevalonate 5-phosphate]",kcat/KM,[2]; [11],780 ± 60 M⁻¹ s⁻¹
same,increase of kcat/KM compared to wild type,"[2]; Y19H versus wild type PMDsc, MVAP",about 10 fold
same,kcat/KM,[3],500 ± 100 M⁻¹ s⁻¹
same,kcat,[4]; [11],0.14 s⁻¹
same,kobs,[4]; [12],0.07 s⁻¹
same,kcat (MVAP),[1]; alternative substrate MVAP,0.14 s⁻¹
same,Km,[5]; [11],2300 µM
same,kcat,[5]; [11],0.15 s⁻¹
same,kobs,[5]; [12],0.02 s⁻¹
B1,48 hr Titer (isopentenol),E. coli DH1 [6],770 (263) mg/L
same,activity of WT for phosphomevalonate (MVAP),[7],220%
same,isopentenol titer,E. coli DH1 [8],770.3 mg/L
same,Km,[9],0.75 (0.05) mM
same,kcat,[9],0.33 (0.03) sec^−1
same,kcat/Km,[9],0.44 (0.05) mM^−1 sec^−1
same,"competitive growth of mixed culture (WT, K22M, R74H)","E. coli DH1 [10]; 10 μM fosmidomycin, several dilutions, sequencing",dominant strain
same,Growth rate,E. coli DH1 [10]; 10-fold higher inducer concentration (100 nM aTc),0.83±0.01 hr^1
same,Growth rate,"E. coli DH1 [10]; Table 2, screening conditions, standard deviation in brackets",0.68 (0.04) hr^−1
same,Growth rate,E. coli DH1 [10]; screening conditions,0.68 ± 0.04 h⁻¹
same,growth under fosmidomycin selection pressure,E. coli DH1 [10]; screening platform,grew faster than the strain with WT PMDsc

# Source: US11001838B2, “Platform for screening phosphomevalonate decarboxylase” (The Regents of the University of California, priority 2017, dated 2021)
